Experimental findings from article PMC5983740, “Tryptophan-Containing Dual Neuroprotective Peptides: Prolyl Endopeptidase Inhibition and Caenorhabditis elegans Protection from β-Amyloid Peptide Toxicity” (International Journal of Molecular Sciences, 2018) are described below.

This experiment deals with T1, prolyl endopeptidase (PEP) (Elizabethkingia meningoseptica, UniProt P27028).
T1 construct: purchased Seikagaku Corporation (Tokyo, Japan)
Description: biochemical. The class given is biochemical. The settings on record: 0.7 and 1.4 mg/mL. On the procedure: The PEP activity was determined as previously described with minor modifications. Enzyme assays were performed in 96-well microplates using Z-Gly-Pro-p-nitroanilide as a substrate and measuring the increase in absorbance at 410 nm due to the release of p-nitroaniline. Ten µL of tenfold peptide or hydrolysate solution in 100 mM sodium phosphate buffer, pH 7 ([…] for LFHs), 30 µL of a 0.1 U/mL PEP solution in 100 mM sodium phosphate buffer (pH 7) and 35 µL of the same sodium phosphate buffer were pre-incubated at 30 °C for 5 min, and the mixture incubated with 25 µL of 2 mM Z-Gly-Pro-p-nitroanilide in 40% 1,4-dioxane for 30 min at the same temperature. The reaction was finished by the addition of 100 µL 10% Triton X-100 in 1 M sodium acetate buffer (pH 4), and the absorbance measured at 410 nm in a microplate reader. Data are expressed as the percentage of PEP residual activity with respect to a control without peptide (100%).
The IC50 value of a peptide was defined as the concentration required to inhibit 50% of the PEP activity and the value for each experiment was estimated by non-linear regression of the experimental data to a four-parameter logistic curve using the software package SigmaPlot v 13.0 (SPSS Inc., Chicago, IL, USA).

T1 sequence (P27028 21-705): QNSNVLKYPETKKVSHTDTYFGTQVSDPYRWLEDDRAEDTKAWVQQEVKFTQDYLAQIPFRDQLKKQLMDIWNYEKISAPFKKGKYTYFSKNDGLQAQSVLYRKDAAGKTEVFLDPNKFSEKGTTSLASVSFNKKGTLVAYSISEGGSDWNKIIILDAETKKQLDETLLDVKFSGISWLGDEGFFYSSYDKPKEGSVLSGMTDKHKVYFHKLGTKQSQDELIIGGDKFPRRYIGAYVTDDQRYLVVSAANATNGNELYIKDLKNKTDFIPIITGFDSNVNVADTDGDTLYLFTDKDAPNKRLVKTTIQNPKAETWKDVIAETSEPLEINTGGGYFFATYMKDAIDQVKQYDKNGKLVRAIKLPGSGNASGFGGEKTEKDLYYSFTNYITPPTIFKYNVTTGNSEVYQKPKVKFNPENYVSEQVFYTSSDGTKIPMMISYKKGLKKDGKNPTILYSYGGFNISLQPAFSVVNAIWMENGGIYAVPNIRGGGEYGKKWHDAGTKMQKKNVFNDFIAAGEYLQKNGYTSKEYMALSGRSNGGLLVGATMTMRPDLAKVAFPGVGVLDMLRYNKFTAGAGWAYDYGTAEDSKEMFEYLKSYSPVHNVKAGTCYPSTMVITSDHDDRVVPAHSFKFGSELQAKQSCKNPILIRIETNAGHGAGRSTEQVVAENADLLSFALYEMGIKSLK

B1: Non-hydrolysed LF: bovine lactoferrin, multifunctional iron glycoprotein of milk whey, not hydrolysed (protein, UniProt P24627 20-708, looked up)
Lactotransferrin: APRKNVRWCTISQPEWFKCRRWQWRMKKLGAPSITCVRRAFALECIRAIAEKKADAVTLDGGMVFEAGRDPYKLRPVAAEIYGTKESPQTHYYAVAVVKKGSNFQLDQLQGRKSCHTGLGRSAGWIIPMGILRPYLSWTESLEPLQGAVAKFFSASCVPCIDRQAYPNLCQLCKGEGENQCACSSREPYFGYSGAFKCLQDGAGDVAFVKETTVFENLPEKADRDQYELLCLNNSRAPVDAFKECHLAQVPSHAVVARSVDGKEDLIWKLLSKAQEKFGKNKSRSFQLFGSPPGQRDLLFKDSALGFLRIPSKVDSALYLGSRYLTTLKNLRETAEEVKARYTRVVWCAVGPEEQKKCQQWSQQSGQNVTCATASTTDDCIVLVLKGEADALNLDGGYIYTAGKCGLVPVLAENRKSSKHSSLDCVLRPTEGYLAVAVVKKANEGLTWNSLKDKKSCHTAVDRTAGWNIPMGLIVNQTGSCAFDEFFSQSCAPGADPKSRLCALCAGDDQGLDKCVPNSKEKYYGYTGAFRCLAEDVGDVAFVKNDTVWENTNGESTADWAKNLNREDFRLLCLDGTRKPVTEAQSCHLAVAPNHAVVSRSDRAAHVKQVLLHQQALFGKNGKNCPDKFCLFKSETKNLLFNDNTECLAKLGGRPTYEEYLGTEYVTAIANLKKCSTSPLLEACAFLTR
Consider B1, for which the “inhibitory effect on PEP activity” value is on record as “did not show any inhibitory effect”.
